# Source: patent US9725702B2, “Laccase from ganoderma lucidum capable of enhancing enzymatic degradation of lignocellulolytic biomass” (DANMARKS TEKNISKE UNIVERSITET, priority 2012, dated 2017)
# B1: LacGL1: Fungal laccase from Ganoderma lucidum CBS229.93 (SEQ ID NO: 5/9), recombinantly expressed in Pichia pastoris X-33 (protein, listed as Ganoderma lucidum)
# chain: GIGPKTDLTISNADVAPDGYTRAAVVVNGVFPAPLITGNKGDRFQLNVIDQMTNHTMLKSTSIHWHGFFQKGTNWADGPAFINQCPISSGHSFLYDFQVPDQAGTFWYHSHLSTQYCDGLRGPFVVYDPKDPLKKLYDIDDDSTVITLTDWYHVAARLGPRFPLGSDSTLINGLGRSTTNVTADLAVINVTQGKRYRFRLVSLSCDPNYTFSIDDHNMTVIEADGIETQPVTVNAIQIFSAQRYSFVLTANQTIDNYWIRANPNFGNVGFTDGINSAILRYAGADPVEPTTSQQTTQNLLNEVDLHPFVPKRTPGQPTQGGVDTAINMVFNFNGSNFFINNASFVPPTVPVLLQILSGAQAAQDLLPSGSVYTLPVNKSIELTFPATANAPGAPHPFHLHGHAFAVVRSAGSTVYNYDNPVWRDVVSTGTPAAGDNVTIRFQTDNPGPWFLHCHIDFHLEAGFAVVFAEDPTDTSLANPVPKAWSDLCPTYDALSVDDQ
# modifications: mat_peptide (1)..(499) Mature LacGL1 laccase (minus signal peptide)
# Legend:
# [1] = Glucose release in LacGL1-cellulase (Cellic CTec1, CTec2) catalyzed hydrolysis of STEX SCB; format: biochemical
# Method: FIG. 11. A graphical comparison of yields of released glucose over time in LacGL1-Cellic® CTec1 catalyzed hydrolysis STEX-SCB at different pH and temperatures. The cellulase preparation is Cellic® CTec1 (CC1) and laccase was Ganoderma lucidum LacGL1 expressed in Pichia pastoris X-33. CC1 and LacGL1 were added in E/S ratio of 0.064%, and 0.4% (w/w), respectively.
# FIG. 12. A graphical comparison of the yields of released glucose over time in LacGL1-Cellic® CTec2 catalyzed hydrolysis of STEX-SCB at different pH and temperatures. The cellulase preparation is Cellic® CTec2 (CC2) and laccase was Ganoderma lucidum LacGL1 expressed in Pichia pastoris X-33. […] and LacGL1 were added in E/S ratio of 0.064%, and 0.4% (w/w), respectively.
# 5% (w/v) dry matter of pretreated SCB (STEX SCB) was evaluated in 0.1 M citrate-phosphate buffer at pH 4.7 and 40° C. (optimal for the LacGL1 laccase) or pH 5.1 and 50° C. (optimal for the cellulase preparations), respectively. The commercially available cellulase cocktail preparations: Cellic® CTec1 and Cellic® CTec2 (0.064% Enzyme/Substrate ratio (E/S), w/w; Novozymes, Bagsværd, Denmark) were used with the combination of the LacGL1 laccase (0.4% E/S, w/w). The hydrolysis reactions were collected after 0, 1, 3, 5, 16, and 24 hours and stopped by incubation at 99° C. for 15 min. The samples were then centrifuged at 10.000 rpm for 2 min., the supernatants were filtered through 0.2 μm filter and the yields of released glucose were quantified using the D-glucose-HK kit (Megazyme, Denmark). The glucose yields released over time were corrected for the glucose content of the hydrolysis sample at time 0. The E/S dosage was based on the total protein concentration used. The protein quantification was performed using the Pierce BCA (BiCinchoninic Acid) protein assay kit microplate procedure according to manufacturer's instructions (Thermo Fisher Scientific, Rockford, US) using Bovine serum albumin (BSA) was used as a standard, as described before (Silva et al. 2011). The Cellic® CTec1 (CC1) and Cellic® CTec2 (CC2), cellulase preparations, are based on the Trichoderma reesei cellulase complex (exo-glucanase, endo-glucanase, and β-glucosidase activities) with additional β-glucosidase and glycoside hydrolase family 61 hydrolyse boosting proteins (Harris 2010). All determinations of the enzymatic hydrolysis samples were performed in duplicates.
# Release of glucose during cellulose hydrolysis of STEX SCB is enhanced by the addition of LacGL1 laccase in a dosage dependent manner (data not shown). The combined laccase plus cellulase treatment of STEX SCB were performed at two different conditions: Firstly, at […], 40° C. which is optimal for the LacGL1 laccase (as previously shown from MODDE pH-temp.-activity model, FIG. 8 and thermal stability plots, FIGS. 9, 10), which are slightly less optimal for cellulases; and secondly at 50° C. and pH 5.1, which are the golden standard conditions for optimal performance of CC1 and CC2. From the MODDE data, […]: the type of the cellulase preparation, the addition of LacGL1, the temperature, and the pH of the reaction (FIG. 11, 12). Overall, the highest rate of STEX SCB hydrolysis, considering all of the aforementioned factors, was obtained for the combination of LacGL1-Cellic® CTec2 at pH 5.1 and 50° C. […] The higher pH and temperature enhanced LacGL1-CC2 catalyzed hydrolysis by 12% (FIG. 12).
# [2] = Laccase-cellulase catalyzed hydrolysis of pretreated biomass, glucose release; format: biochemical; conditions: with cellulase 1 or 2, pH 5.1, 50° C., 30 hour, p<0.05
# Method: FIG. 14. A graphical comparison of glucose released over time during hydrolysis of pre-treated barley straw at pH 5.1 and 50° C. by each of commercial enzyme preparations Cellulase 1 (CC2) [A]; or Cellulase 2 [B], either alone, or in combination with a laccase enzyme; the tested laccases being respectively LacGL1 and GLlac1 (LacJooSS; Q9HG17) derived from G. lucidum; and laccases derived from Agaricus bisporus (Sigma 40452), Pleurotus ostreatus (Sigma 75117) and, Trametes versicolor (Sigma 51639).
# The commercial fungal laccases were purchased as lyophilized protein samples from Sigma Aldrich. A solution of each of the above 5 laccases was prepared in a citric buffer containing 20% of glycerol (pH 5.1, 100 mM).
# Two different commercially available cellulase enzyme preparations used in the comparative study were “Cellulase 1” and “Cellulase 2”, which were tested in combination with each of the laccases listed above.
# The three different types of pretreated biomass used in the comparative study were sugarcane bagasse, barley straw and wheat straw. The source and pre-treatment of the sugarcane bagasse by steam explosion was as set out in Example 9. […] The composition of the dry and the pretreated biomass were determined according to the US National Renewable Energy Laboratory (NREL) procedures (Sluiter et al, 2010).
# The laccase-cellulase catalyzed hydrolysis of the pretreated biomass samples to release glucose was performed as follows: Hydrolysis of 5% (w/v) samples of pretreated sugarcane bagasse, barley straw, and wheat straw biomass were assayed using an Enzyme/Substrate (E/S) ratio of 0.064% w/w for laccases and of 0.4% w/w for each commercial cellulase preparation in each hydrolysis reaction. The E/S dosage was based on the total protein concentration used, as determined using Pierce BCA (BiCinchoninic Acid) protein assay kit microplate procedure according to manufacturer's instruction (Thermo Fisher Scientific, Rockford, US). […]
# Laccase and cellulase-mediated hydrolysis of the 3 biomass forms, measured as glucose release, are shown graphically in FIGS. 13, 14 and 15. […]
molecule,measurement,setting,value
B1,improvement in glucose yields over CC1 at pH 5.1 and 50° C.,"[1]; LacGL1-CC1 at pH 4.6, 40° C.",66%
same,improvement in glucose yields over LacGL1-CC1 at pH 5.1 and 50° C.,"[1]; LacGL1-CC1 at pH 4.6, 40° C.",48%
same,total glucose yield higher than CC2 alone,"[1]; LacGL1-Cellic CTec2 at pH 5.1, 50° C. vs CC2 alone at pH 4.6, 40° C.",27.5%
same,total glucose yield higher than CC2 alone,"[1]; LacGL1-Cellic CTec2 at pH 5.1, 50° C. vs CC2 alone under the same conditions",19%
same,enhancement of CC1 mediated-hydrolysis,"[1]; pH 4.6, 40° C.",30%
same,enhancement of LacGL1-CC2 catalyzed hydrolysis by higher pH and temperature,"[1]; pH 5.1, 50° C. vs pH 4.6, 40° C.",12%
same,glucose release compared to GLlac1,[2],significantly greater
same,glucose release compared to the other tested laccases,[2],significantly enhanced
